The target of the assay is T1, mN2G^SR (mini-nesprin-2G lacking the transmembrane KASH domain, with C-terminal sfGFP-6xHis) (mouse, UniProt Q6ZWQ0-1).
T1 chain: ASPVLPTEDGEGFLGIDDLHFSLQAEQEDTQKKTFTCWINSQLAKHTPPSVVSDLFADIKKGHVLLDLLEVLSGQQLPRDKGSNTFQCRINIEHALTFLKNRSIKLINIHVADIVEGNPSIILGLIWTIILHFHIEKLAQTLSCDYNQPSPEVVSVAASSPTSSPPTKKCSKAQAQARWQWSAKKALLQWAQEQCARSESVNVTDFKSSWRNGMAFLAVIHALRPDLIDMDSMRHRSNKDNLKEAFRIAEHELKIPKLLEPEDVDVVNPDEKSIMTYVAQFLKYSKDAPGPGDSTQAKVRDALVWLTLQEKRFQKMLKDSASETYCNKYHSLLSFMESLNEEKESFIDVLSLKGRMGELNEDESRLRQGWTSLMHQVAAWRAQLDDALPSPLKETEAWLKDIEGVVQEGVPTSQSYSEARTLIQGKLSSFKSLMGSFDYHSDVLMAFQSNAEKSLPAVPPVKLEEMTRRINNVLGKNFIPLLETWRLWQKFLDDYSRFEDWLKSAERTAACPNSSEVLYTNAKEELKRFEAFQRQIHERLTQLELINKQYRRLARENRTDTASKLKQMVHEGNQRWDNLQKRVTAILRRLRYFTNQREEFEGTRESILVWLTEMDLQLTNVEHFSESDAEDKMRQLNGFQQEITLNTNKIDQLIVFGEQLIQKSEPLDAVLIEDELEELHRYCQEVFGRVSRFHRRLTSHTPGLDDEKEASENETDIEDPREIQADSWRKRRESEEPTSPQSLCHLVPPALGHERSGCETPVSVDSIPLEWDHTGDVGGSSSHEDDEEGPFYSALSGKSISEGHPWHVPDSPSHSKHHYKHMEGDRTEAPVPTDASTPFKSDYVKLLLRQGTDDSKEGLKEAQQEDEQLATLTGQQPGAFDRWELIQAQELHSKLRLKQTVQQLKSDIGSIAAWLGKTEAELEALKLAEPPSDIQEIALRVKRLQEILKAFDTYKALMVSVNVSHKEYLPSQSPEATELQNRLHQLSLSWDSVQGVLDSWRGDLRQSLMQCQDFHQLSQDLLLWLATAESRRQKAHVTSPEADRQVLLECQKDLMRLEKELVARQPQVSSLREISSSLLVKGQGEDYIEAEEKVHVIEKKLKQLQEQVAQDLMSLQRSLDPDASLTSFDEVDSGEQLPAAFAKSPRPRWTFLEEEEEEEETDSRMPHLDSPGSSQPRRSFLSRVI
In words: TIRF microscopy.

From publication PMC11844729 (Science Advances, 2025) come the findings set out here.

Where only a bound is given, the exact number is not on record here.

B1: kinesin heterotetramer composed of the KIF5B KHC and KLC2 (K5B2) (complex)
chain 1: MADLAECNIKVMCRFRPLNESEVNRGDKYIAKFQGEDTVVIASKPYAFDRVFQSSTSQEQVYNDCAKKIVKDVLEGYNGTIFAYGQTSSGKTHTMEGKLHDPEGMGIIPRIVQDIFNYIYSMDENLEFHIKVSYFEIYLDKIRDLLDVSKTNLSVHEDKNRVPYVKGCTERFVCSPDEVMDTIDEGKSNRHVAVTNMNEHSSRSHSIFLINVKQENTQTEQKLSGKLYLVDLAGSEKVSKTGAEGAVLDEAKNINKSLSALGNVISALAEGSTYVPYRDSKMTRILQDSLGGNCRTTIVICCSPSSYNESETKSTLLFGQRAKTIKNTVCVNVELTAEQWKKKYEKEKEKNKILRNTIQWLENELNRWRNGETVPIDEQFDKEKANLEAFTVDKDITLTNDKPATAIGVIGNFTDAERRKCEEEIAKLYKQLDDKDEEINQQSQLVEKLKTQMLDQEELLASTRRDQDNMQAELNRLQAENDASKEEVKEVLQALEELAVNYDQKSQEVEDKTKEYELLSDELNQKSATLASIDAELQKLKEMTNHQKKRAAEMMASLLKDLAEIGIAVGNNDVKQPEGTGMIDEEFTVARLYISKMKSEVKTMVKRCKQLESTQTESNKKMEENEKELAACQLRISQHEAKIKSLTEYLQNVEQKKRQLEESVDALSEELVQLRAQEKVHEMEKEHLNKVQTANEVKQAVEQQIQSHRETHQKQISSLRDEVEAKAKLITDLQDQNQKMMLEQERLRVEHEKLKATDQEKSRKLHELTVMQDRREQARQDLKGLEETVAKELQTLHNLRKLFVQDLATRVKKSAEIDSDDTGGSAAQKQKISFLENNLEQLTKVHKQLVRDNADLRCELPKLEKRLRATAERVKALESALKEAKENASRDRKRYQQEVDRIKEAVRSKNMARRGHSAQIAKPIRPGQHPAASPTHPSAIRGGGAFVQNSQPVAVRGGGGKQV
chain 2: MAMMVFPREEKLSQDEIVLGTKAVIQGLETLRGEHRALLAPLVAPEAGEAEPGSQERCILLRRSLEAIELGLGEAQVILALSSHLGAVESEKQKLRAQVRRLVQENQWLREELAGTQQKLQRSEQAVAQLEEEKQHLLFMSQIRKLDEDASPNEEKGDVPKDTLDDLFPNEDEQSPAPSPGGGDVSGQHGGYEIPARLRTLHNLVIQYASQGRYEVAVPLCKQALEDLEKTSGHDHPDVATMLNILALVYRDQNKYKEAAHLLNDALAIREKTLGKDHPAVAATLNNLAVLYGKRGKYKEAEPLCKRALEIREKVLGKFHPDVAKQLSNLALLCQNQGKAEEVEYYYRRALEIYATRLGPDDPNVAKTKNNLASCYLKQGKYQDAETLYKEILTRAHEKEFGSVNGDNKPIWMHAEEREESKDKRRDSAPYGEYGSWYKACKVDSPTVNTTLRSLGALYRRQGKLEAAHTLEDCASRNRKQGLDPASQTKVVELLKDGSGRRGDRRSSRDMAGGAGPRSESDLEDVGPTAEWNGDGSGSLRRSGSFGKLRDALRRSSEMLVKKLQGGTPQEPPNPRMKRASSLNFLNKSVEEPTQPGGTGLSDSRTLSSSSMDLSRRSSLVG
As for B1, the “fold recruitment to F-actin against mN2G^CH” value was more than 115 fold.
